Assay [1] deals with CAT-2200 lambda light chain T131K_V133S. Put plainly: LCCA, SPR.
For assay [2] the target is unchanged. Put plainly: LCCA, SPR. This is another data set of the same source.
Assay [3] deals with CAT-2200 lambda light chain E124Q_T131R. Briefly: LCCA, SPR.
For assay [4], the target named is CAT-2200 lambda light chain E124Q_T131K. Put plainly: LCCA, SPR.
The target of assay [5] is CAT-2200 lambda light chain E124Q_T131R. Briefly: LCCA, SPR. The source holds these as a separate data set.
For assay [6] the target is unchanged. Briefly: LCCA, SPR. The source holds these as a separate data set.
Assay [7] has as its target CAT-2200 lambda light chain E124Q_T131K. Put plainly: LCCA, SPR. This is another data set of the same source.
Assay [8] addresses CAT-2200 lambda light chain V133D_Y178T. Briefly: LCCA, SPR.
Assay [9] concerns the target CAT-2200 lambda light chain T131S_V133D_Y178T. Put plainly: LCCA, SPR.
Assay [10] has as its target CAT-2200 lambda light chain V133D_Y178T. Put plainly: LCCA, SPR. The source holds these as a separate data set.
Assay [11] shares this target. Briefly: LCCA, SPR. This is another data set of the same source.
Assay [12] concerns the target Pertuzumab kappa light chain S176K_T178R. Briefly: LCCA, SPR.
Assay [13] has as its target Pertuzumab kappa light chain S176K_T178K. Briefly: LCCA, SPR.
Assay [14] deals with Pertuzumab kappa light chain S131K_V133G_S176R (L2), HA-tagged. Briefly: LCCA, SPR of light-chain tags.
Assay [15] addresses Pertuzumab kappa light chain S131R_V133G_S176R (L2), HA-tagged. Put plainly: LCCA, SPR of light-chain tags.
The target in assay [16] is Pertuzumab kappa light chain S131K_V133G_S176R (L2), HA-tagged. Briefly: LCCA, SPR of light-chain tags. This is another data set of the same source.
Assay [17] addresses Pertuzumab kappa light chain S131R_V133G_S176R (L2), HA-tagged. Briefly: LCCA, SPR of light-chain tags. This is another data set of the same source.
In assay [18] the target is Pertuzumab kappa light chain S131K_V133G_S176R (L2), HA-tagged. Put plainly: LCCA, SPR of light-chain tags. The source holds these as a separate data set.
Assay [19] has as its target Pertuzumab kappa light chain S131R_V133G_S176R (L2), HA-tagged. Briefly: LCCA, SPR of light-chain tags. The source holds these as a separate data set.
The target of assay [20] is CAT-2200 lambda light chain V133L_S176D_Y178E (L1), FLAG-tagged. Put plainly: LCCA, SPR of light-chain tags.
Assay [21] concerns the target CAT-2200 lambda light chain S176E_Y178E (L1), FLAG-tagged. Briefly: LCCA, SPR of light-chain tags.
Assay [22] concerns the target CAT-2200 lambda light chain V133L_S176D_Y178E (L1), FLAG-tagged. Briefly: LCCA, SPR of light-chain tags. This is another data set of the same source.
In assay [23] the target is CAT-2200 lambda light chain S176E_Y178E (L1), FLAG-tagged. Put plainly: LCCA, SPR of light-chain tags. This is another data set of the same source.
The target of assay [24] is Pertuzumab kappa light chain S131K_V133G_S176R_T178A (L2), HA-tagged. Briefly: LCCA, SPR of light-chain tags.
Assay [25] addresses Pertuzumab kappa light chain S131R_V133G_S176R_T178A (L2), HA-tagged. Put plainly: LCCA, SPR of light-chain tags.
For assay [26], the target named is Pertuzumab kappa light chain S131K_V133G_S176R_T178A (L2), HA-tagged. Put plainly: LCCA, SPR of light-chain tags. The source holds these as a separate data set.
Assay [27] deals with Pertuzumab kappa light chain S131R_V133G_S176R_T178A (L2), HA-tagged. Put plainly: LCCA, SPR of light-chain tags. This is another data set of the same source.
The target in assay [28] is Pertuzumab kappa light chain S131R_V133T_L135K_T178S. Briefly: LCCA, SPR.
Assay [29] addresses Pertuzumab kappa light chain V133G_L135W_S176D_T180E. Briefly: LCCA, SPR tag read-out.
Assay [30] addresses Pertuzumab kappa light chain V133G_S176D_T180E. Briefly: LCCA, SPR.
Assay [31] concerns the target Pertuzumab kappa light chain V133G_S176D_T178E. Put plainly: LCCA, SPR.
In assay [32] the target is Pertuzumab kappa light chain V133G_S176D_T180E. Briefly: LCCA, SPR. The source holds these as a separate data set.
In assay [33] the target is Pertuzumab kappa light chain V133G_S176D_T178E. Briefly: LCCA, SPR. This is another data set of the same source.
Assay [34] concerns the target Pertuzumab kappa light chain V133G_L135W_S176D_T180E. Briefly: LCCA, SPR tag read-out. This is another data set of the same source.
Assay [35] has as its target CAT-2200 lambda light chain K129T_V133D. Put plainly: LCCA, SPR.
Assay [36] concerns the target Pertuzumab kappa light chain Q124K_V133A_T178R. Briefly: LCCA, SPR.
Assay [37] deals with Pertuzumab kappa light chain Q124R_T178R (L2), HA-tagged. Briefly: LCCA, SPR of light-chain tags.
Assay [38] has as its target Pertuzumab kappa light chain Q124R_Q160K_T178R (L2), HA-tagged. Put plainly: LCCA, SPR of light-chain tags.
Assay [39] addresses Pertuzumab kappa light chain Q124R_T178R (L2), HA-tagged. Briefly: LCCA, SPR of light-chain tags. The source holds these as a separate data set.
The target of assay [40] is Pertuzumab kappa light chain Q124R_Q160K_T178R (L2), HA-tagged. Put plainly: LCCA, SPR of light-chain tags. This is another data set of the same source.
In assay [41] the target is CAT-2200 lambda light chain E124Q_T131K_V133S. Put plainly: LCCA, SPR tag read-out.
In assay [42] the target is Pertuzumab kappa light chain V133D_Q160E. Briefly: LCCA, SPR.
The target of assay [43] is Pertuzumab kappa light chain V133D. Put plainly: LCCA, SPR.
Assay [44] concerns the target Pertuzumab kappa light chain Q124E_V133D_L135W. Briefly: LCCA, SPR tag read-out.
Assay [45] deals with Pertuzumab kappa light chain Q124E_V133D. Briefly: LCCA, SPR.
The target is the same in assay [46]. Put plainly: LCCA, SPR. The source holds these as a separate data set.
For assay [47], the target named is Pertuzumab kappa light chain S131K_S176A_T178S. Put plainly: LCCA, SPR.
Assay [48] deals with Pertuzumab kappa light chain S131K_T178S. Briefly: LCCA, SPR.
Assay [49] has as its target Pertuzumab kappa light chain S131K_S176A_T178S. Put plainly: LCCA, SPR. The source holds these as a separate data set.
The target of assay [50] is Pertuzumab kappa light chain S131K_T178S. Briefly: LCCA, SPR. The source holds these as a separate data set.
Assay [51] deals with CAT-2200 lambda light chain S176A_Y178W (L1), FLAG-tagged. Briefly: LCCA, SPR of light-chain tags.
Assay [52] deals with Pertuzumab kappa light chain S176A_T178A (L2), HA-tagged. Briefly: LCCA, SPR of light-chain tags.

Read-outs that look alike come from different tables or passages of the source.

In the case of “CAT-2200 Fab heavy chain L143D_K145T_Q179E”, the H1L1:H1L2 normalized median scalar value ln(r1/f1) amounted to 0.58 in [1] and 0.41 in assay [2].
Regarding “CAT-2200 Fab heavy chain L143E_K145T_Q179E”, the H1L1:H1L2 normalized median scalar value ln(r1/f1) in assay [3] was 0.28; in [4] it was -0.04; in assay [5], 1.65; in [6], 2.87; in assay [7], 3.04.
Take CAT-2200 Fab heavy chain S186K_S188T: the H1L1:H1L2 normalized median scalar value ln(r1/f1) in [8] was 0.91; in assay [9], -0.34; in assay [10], 0.54; in [11], 1.84.
With “Pertuzumab Fab heavy chain K145T_V177D_S188D”, the H2L2:H2L1 normalized median scalar value ln(r1/f1) in assay [12] stood at 1.5; in assay [13], 1.68. Further, the figures for the H2L2:H2L1 normalized median ratio in assay [13] and in assay [8] were 84% and 16%, respectively.
Take “Pertuzumab Fab heavy chain L124E_K145T_Q179E (H2)”: the H2L2:H2L1 normalized median scalar value ln(r1/f1) in assay [14] was 2.41; in assay [15], 2.42; in assay [16], 2.94; in [17], 2.85; in assay [18], 2.21; in assay [19] it was 2.51.
On to “Pertuzumab Fab heavy chain L124E_K145T_Q179E_S188W (H2)”, for which the H2L2:H2L1 normalized median ratio (H2L1 share) in assay [20] is 12%; in assay [21], 15%; in assay [22], 8%; in assay [23], 11%. In addition, the H2L2:H2L1 normalized median ratio, H2L2 share in assay [24] came to 88%; in [25], 92%; in assay [26], 85%; in assay [27] it was 89%. For the same substance, the H2L2:H2L1 normalized median scalar value ln(r1/f1) in [24] turned out to be 1.98; in [25], 2.4; in assay [26], 1.77; in [27] it was 2.13.
With “Pertuzumab Fab heavy chain L124E_L143E_K145T”, the H2L2:H2L1 normalized median scalar value ln(r1/f1) in assay [28] was determined as 0.62.
Turning to Pertuzumab Fab heavy chain L124R_Q179K, the H2L2:H2L1 median scalar value in assay [29] was -0.52 ln(ratio); in [34] it was -0.41 ln(ratio). Moreover, the H2L2:H2L1 normalized median ratio in [30] was determined as 73%; in assay [3], 27%; in [4], 28%; in [32], 72%; in assay [6] it was 33%. Besides, the H2L2:H2L1 normalized median scalar value ln(r1/f1) stood at 0.97 in [30], 0.69 in assay [31], 0.95 in assay [32] and 0.77 in assay [33].
Regarding “Pertuzumab Fab heavy chain L124W_L143E_K145T_Q179E”, the H2L2:H2L1 normalized median ratio in assay [35] is 8%. Moreover, in assay [36], the H2L2:H2L1 normalized median ratio was 92% and the H2L2:H2L1 normalized median scalar value ln(r1/f1) worked out at 2.51.
With “Pertuzumab Fab heavy chain L143E_K145T_Q179E (H2)”, the H2L2:H2L1 normalized median scalar value ln(r1/f1) stood at 3.16 in assay [37], 3.21 in assay [38], 2.22 in assay [39] and 2.62 in [40].
With Pertuzumab Fab heavy chain L143I_S186K, the H2L2:H2L1 normalized median ratio in assay [41] was determined as 16%; in assay [43], 72%; in assay [44], 84%; in assay [2], 28%. In addition, the H2L2:H2L1 normalized median scalar value ln(r1/f1) in assay [42] was found to be 1.5; in assay [43] it was 0.92. For the same substance, the H2L2:H2L1 median scalar value in assay [44] was 1.69 ln(ratio).
For Pertuzumab Fab heavy chain L143K, the H2L2:H2L1 normalized median ratio in [45] turned out to be 91%; in assay [3] it was 9%; in [46], 92%; in [4], 8%. The figures for the H2L2:H2L1 normalized median scalar value ln(r1/f1) in assay [45] and in [46] were 2.3 and 2.48, respectively.
With Pertuzumab Fab heavy chain L143T_S188D, the H2L2:H2L1 normalized median ratio was found to be 54% in assay [47] and 46% in assay [10]. Moreover, the H2L2:H2L1 normalized median scalar value ln(r1/f1) in assay [47] is 0.15; in [48], -0.25; in assay [49], 1.51; in assay [50], 0.84.
For the substance “Pertuzumab Fab heavy chain S186L_S188W (H2)”, the H2L2:H2L1 normalized median ratio (H2L1 share) in [51] came out at 33%. Also, in [52], the H2L2:H2L1 normalized median ratio, H2L2 share is 67% and the H2L2:H2L1 normalized median scalar value ln(r1/f1) was 0.7.

These data come from US20190338048A1.
